The supplement of paper PMC9112550, “Optimization of the antimicrobial peptide Bac7 by deep mutational scanning” (BMC Biology, 2022)

Tested on: Escherichia coli TOP10
Assay: shrunken log2 fold change of peptide-encoding DNA abundance (4.5 h post-induction vs induction); higher = less antimicrobial activity (less host growth inhibition)
Conditions: time post-induction: 4.5 h; library: site-saturation at positions 5, 18, 19, 20
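Note: peptides expressed intracellularly from a pBAD plasmid library in pooled LB shake-flask culture, induced with 0.3% L-arabinose, DNA abundance read by NGS, three biological replicates, DESeq2 with apeglm shrinkage.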

Row | Sequence | shrunken log2 fold change
1 | RRIRFRPPRLPRPRPRPHCLPRP | -0.377
2 | RRIRFRPPRLPRPRPRPHEDPRP | 0.0846
3 | RRIRFRPPRLPRPRPRPHGHPRP | -0.18
4 | RRIRFRPPRLPRPRPRPHGPPRP | 0.11
5 | RRIRFRPPRLPRPRPRPHIIPRP | -0.879
6 | RRIRFRPPRLPRPRPRPHIMPRP | -0.709
7 | RRIRFRPPRLPRPRPRPHITPRP | -0.734
8 | RRIRFRPPRLPRPRPRPHIYPRP | -1.22
9 | RRIRFRPPRLPRPRPRPHLEPRP | -0.425
10 | RRIRFRPPRLPRPRPRPHLMPRP | -0.149
11 | RRIRFRPPRLPRPRPRPHMKPRP | -0.585
12 | RRIRFRPPRLPRPRPRPHMWPRP | -0.951
13 | RRIRFRPPRLPRPRPRPHNRPRP | 0.0584
14 | RRIRFRPPRLPRPRPRPHQNPRP | -0.182
15 | RRIRFRPPRLPRPRPRPHRLPRP | 0.0835
16 | RRIRFRPPRLPRPRPRPHSVPRP | 0.036
17 | RRIRFRPPRLPRPRPRPHWFPRP | -0.0545
18 | RRIRFRPPRLPRPRPRPHWYPRP | -0.343
19 | RRIRFRPPRLPRPRPRPHYEPRP | -0.0922
20 | RRIRFRPPRLPRPRPRPHYKPRP | -0.408
21 | RRIRFRPPRLPRPRPRPIAQPRP | -0.0298
22 | RRIRFRPPRLPRPRPRPIATPRP | -0.0109
23 | RRIRFRPPRLPRPRPRPICCPRP | -0.134
24 | RRIRFRPPRLPRPRPRPICNPRP | -0.424
25 | RRIRFRPPRLPRPRPRPICPPRP | -0.208

Row | Sequence | shrunken log2 fold change
26 | RRIRFRPPRLPRPRPRPIFDPRP | -0.268
27 | RRIRFRPPRLPRPRPRPIGGPRP | 0.14
28 | RRIRFRPPRLPRPRPRPIGHPRP | -0.115
29 | RRIRFRPPRLPRPRPRPIHDPRP | -0.211
30 | RRIRFRPPRLPRPRPRPIHSPRP | -0.895
31 | RRIRFRPPRLPRPRPRPIINPRP | -0.869
32 | RRIRFRPPRLPRPRPRPIKKPRP | 0.0144
33 | RRIRFRPPRLPRPRPRPIKTPRP | -0.0134
34 | RRIRFRPPRLPRPRPRPIKYPRP | -0.335
35 | RRIRFRPPRLPRPRPRPINEPRP | -0.11
36 | RRIRFRPPRLPRPRPRPIPVPRP | 0.0949
37 | RRIRFRPPRLPRPRPRPIRMPRP | -0.191
38 | RRIRFRPPRLPRPRPRPIRYPRP | -0.125
39 | RRIRFRPPRLPRPRPRPISYPRP | -0.778
40 | RRIRFRPPRLPRPRPRPITEPRP | -0.0279
41 | RRIRFRPPRLPRPRPRPITIPRP | -0.195
42 | RRIRFRPPRLPRPRPRPITSPRP | -0.178
43 | RRIRFRPPRLPRPRPRPITTPRP | -0.198
44 | RRIRFRPPRLPRPRPRPIWAPRP | 0.0219
45 | RRIRFRPPRLPRPRPRPKAEPRP | 0.00911
46 | RRIRFRPPRLPRPRPRPKANPRP | 0.00613
47 | RRIRFRPPRLPRPRPRPKEAPRP | 0.084
48 | RRIRFRPPRLPRPRPRPKFLPRP | -0.283
49 | RRIRFRPPRLPRPRPRPKGKPRP | 0.195
50 | RRIRFRPPRLPRPRPRPKGVPRP | 0.0142

Row | Sequence | shrunken log2 fold change
51 | RRIRFRPPRLPRPRPRPKHMPRP | -0.52
52 | RRIRFRPPRLPRPRPRPKHSPRP | -0.434
53 | RRIRFRPPRLPRPRPRPKINPRP | -0.385
54 | RRIRFRPPRLPRPRPRPKKQPRP | 0.0157
55 | RRIRFRPPRLPRPRPRPKKTPRP | 0.0466
56 | RRIRFRPPRLPRPRPRPKMFPRP | -0.323
57 | RRIRFRPPRLPRPRPRPKMQPRP | -0.0373
58 | RRIRFRPPRLPRPRPRPKNMPRP | -0.724
59 | RRIRFRPPRLPRPRPRPKPLPRP | 0.433
60 | RRIRFRPPRLPRPRPRPKQEPRP | 0.246
61 | RRIRFRPPRLPRPRPRPKQTPRP | 1.01
62 | RRIRFRPPRLPRPRPRPKQWPRP | 0.133
63 | RRIRFRPPRLPRPRPRPKRCPRP | 0.383
64 | RRIRFRPPRLPRPRPRPKREPRP | 0.0359
65 | RRIRFRPPRLPRPRPRPKVSPRP | 0.00612
66 | RRIRFRPPRLPRPRPRPKWFPRP | 0.045
67 | RRIRFRPPRLPRPRPRPKWWPRP | -0.0582
68 | RRIRFRPPRLPRPRPRPKYSPRP | -0.14
69 | RRIRFRPPRLPRPRPRPLASPRP | -0.0784
70 | RRIRFRPPRLPRPRPRPLATPRP | -0.00506
71 | RRIRFRPPRLPRPRPRPLCVPRP | -0.394
72 | RRIRFRPPRLPRPRPRPLDSPRP | -0.0455
73 | RRIRFRPPRLPRPRPRPLFHPRP | -0.632
74 | RRIRFRPPRLPRPRPRPLGFPRP | -0.146
75 | RRIRFRPPRLPRPRPRPLGTPRP | 0.0158
